The target of experiment [1] is T1, rat brain farnesyl:protein transferase (rat, UniProt Q04631 2-377; Q02293 1-437). In words: cell-based or functional assay.
Experiment [2] concerns the target T1, rat brain farnesyl:protein transferase. In words: cell-based or functional assay. This is another data set of the same source.

As for CVIE [CVIM with glutamic acid at the X position], the “concentration giving 50% inhibition (farnesyl transfer to p21^H-ras)” value in experiment [1] was more than 40 µM. Same read-out and setting: to CVIK [CVIM with lysine at the X position] belongs more than 40 µM.

Regarding CVIG [CVIM with glycine at the X position], the “concentration giving 50% inhibition (farnesyl transfer to p21^H-ras)” value in experiment [1] is more than 40 µM. In the case of CAIL, the “Concentration for 50% Inhibition (farnesyl transfer to p21^H-ras)” value in experiment [2] stood at 100 µM.

The record behind these values is patent publication US6632626 (dated 2003).
